Source: PMC1450317

Biological target: T1, TSLP receptor (TSLPR) (mouse (endogenous in mouse thymocytes)) (UniProt Q8CII9)
T1 sequence: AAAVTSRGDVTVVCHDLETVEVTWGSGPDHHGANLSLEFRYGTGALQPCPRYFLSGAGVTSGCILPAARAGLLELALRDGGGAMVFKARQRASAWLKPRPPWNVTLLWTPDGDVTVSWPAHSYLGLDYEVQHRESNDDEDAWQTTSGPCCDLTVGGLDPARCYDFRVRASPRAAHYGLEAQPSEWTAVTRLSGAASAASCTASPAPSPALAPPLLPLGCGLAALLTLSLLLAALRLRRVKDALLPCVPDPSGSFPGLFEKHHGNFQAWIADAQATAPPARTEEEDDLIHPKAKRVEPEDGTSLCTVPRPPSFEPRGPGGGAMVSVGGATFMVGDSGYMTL

- FoxP3 mRNA (real-time PCR, FoxP3/18S) in purified CD4+CD8-CD25+ adult thymocytes cultured with TSLP for two days: 2 fold
- FoxP3 mRNA (real-time PCR, FoxP3/18S) in purified CD4+CD8-CD25- adult thymocytes cultured with TSLP for two days: 10 fold
B1: thymic stromal derived lymphopoietin (TSLP), recombinant mouse (ligand)
chain: YNFSNCNFTSITKIYCNIIFHDLTGDLKGAKFEQIEDCESKPACLLKIEYYTLNPIPGCPSLPDKTFARRTREALNDHCPGYPETERNDGTQEMAQEVQNICLNQTSQILRLWYSFMQSPE
